Measured values reported in PMC3792637 (Chembiochem, 2013).

What was measured:
[1] = target: K165C variant of S. aureus N-acetylneuraminic acid lyase (Staphylococcus aureus NCTC 8325) (UniProt Q2G160); experiment: crystal structure
[2] = target: K165-γ-thialysine S. aureus N-acetylneuraminic acid lyase (Staphylococcus aureus NCTC 8325) (UniProt Q2G160); experiment: crystal structure
[3] = target: T1, S. aureus NAL (N-acetylneuraminic acid lyase) (Staphylococcus aureus, UniProt Q2G160); experiment: X-ray crystal structure, soak; format: binding; settings: covalent Schiff base with Lys165; 100 mM sodium pyruvate soak
T1 sequence (Q2G160 1-293): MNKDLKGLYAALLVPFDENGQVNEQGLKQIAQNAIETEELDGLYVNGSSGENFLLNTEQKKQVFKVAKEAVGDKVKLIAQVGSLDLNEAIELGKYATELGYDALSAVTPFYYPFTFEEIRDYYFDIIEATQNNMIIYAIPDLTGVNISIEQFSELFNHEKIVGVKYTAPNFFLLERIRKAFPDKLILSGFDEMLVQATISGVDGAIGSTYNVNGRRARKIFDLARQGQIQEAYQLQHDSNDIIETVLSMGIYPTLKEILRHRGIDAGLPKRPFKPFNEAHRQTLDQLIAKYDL

K165C variant of S. aureus N-acetylneuraminic acid lyase (from UniProt Q2G160 2-293) (enzyme)
stoichiometry N [1]: 4

K165-γ-thialysine S. aureus N-acetylneuraminic acid lyase (from UniProt Q2G160 1-293) (enzyme)
stoichiometry N [2]: 4

CC(=O)C(=O)O [pyruvate]
X-ray crystal structure, soak [3]: the structure of the enzyme–pyruvate complex (PDB ID: 4AH7) was also determined
